The values that follow come from publication PMC6588657 (2018).

First the molecules themselves.
B1: full-length, C-terminal, Flag-tagged human Lnp [human] / Myc-ATL3 [human] (parent complex)
chain 1: MGGLFSRWRTKPSTVEVLESIDKEIQALEEFREKNQRLQKLWVGRLILYSSVLYLFTCLIVYLWYLPDEFTARLAMTLPFFAFPLIIWSIRTVIIFFFSKRTERNNEALDDLKSQRKKILEEVMEKETYKTAKLILERFDPDSKKAKECEPPSAGAAVTARPGQEIRQRTAAQRNLSPTPASPNQGPPPQVPVSPGPPKDSSAPGGPPERTVTPALSSNVLPRHLGSPATSVPGMGLHPPGPPLARPILPRERGALDRIVEYLVGDGPQNRYALICQQCFSHNGMALKEEFEYIAFRCAYCFFLNPARKTRPQAPRLPEFSFEKRQVVEGSSSVGPLPSGSVLSSDNQFNEESLEHDVLDDNTEQTDDKIPATEQTNQVIEKASDSEEPEEKQETENEEASVIETNSTVPGADSIPDPELSGESLTAE
chain 2: MLSPQRVAAAASRGADDAMESSKPGPVQVVLVQKDQHSFELDEKALASILLQDHIRDLDVVVVSVAGAFRKGKSFILDFMLRYLYSQKESGHSNWLGDPEEPLTGFSWRGGSDPETTGIQIWSEVFTVEKPGGKKVAVVLMDTQGAFDSQSTVKDCATIFALSTMTSSVQIYNLSQNIQEDDLQQLQLFTEYGRLAMDEIFQKPFQTLMFLVRDWSFPYEYSYGLQGGMAFLDKRLQVKEHQHEEIQNVRNHIHSCFSDVTCFLLPHPGLQVATSPDFDGKLKDIAGEFKEQLQALIPYVLNPSKLMEKEINGSKVTCRGLLEYFKAYIKIYQGEDLPHPKSMLQATAEANNLAAAASAKDIYYNNMEEVCGGEKPYLSPDILEEKHCEFKQLALDHFKKTKKMGGKDFSFRYQQELEEEIKELYENFCKHNGSKNVFSTFRTPAVLFTGIVALYIASGLTGFIGLEVVAQLFNCMVGLLLIALLTWGYIRYSGQYRELGGAIDFGAAYVLEQASSHIGNSTQATVRDAVVGRPSMDKKAQ

Variants of B1 are the subject of this test. Nature of the test: co-immunoprecipitation; COS-7 cell lysates containing 1% Triton X-100; anti-Flag antibody-conjugated agarose; band quantification by Image J; parent: 1.
For chain 1 I25D, the ratio to parent worked out at 0.32.

As for chain 1 L28D, the ratio to parent was 0.34.

As to chain 1 I25D, chain 1 L28D, the ratio to parent turned out to be 0.26.
